These results are taken from the DeepSol protein solubility set.

The data set can be described thus: soluble on expression in E. coli; label from the status in PepcDB or PDB records.
On to “MTSSIKSDAPQFLLDLDNCSSLPPTPPKTASPGNSKMKGFNISDLCLDLDSSTSSSCSVSPASSFHTRSESVGQQQSGRNSPVSSSTESPTKRPKYSYNALIAMAIQSSPFKSLRVSEIYKYISSNFSYYKNQKPLQWQNSVRHNLSLHKEFRKVRTLDGKGSYWAMTADLGTDVYISNNCGKLRRQKSKVAKFPPMQQHFPIPQLPTQNIHQLCMQNPQILATLLQNMYLQNMQNLQNIPMVPGFPIIPVPINPTSFHFPKSS”, for which the “soluble on expression in E. coli” value is reported as “not soluble”.

“MGHHHHHHSHMFLVLKKKHICHRNLVNILQLNMYVCCLDKCNHCKHLYDLGFCFYFEMGAFLFTSSLKTKNCFCKEMRFFLNNKKCLADSLLNKNLPNFLIDYFKPFVTWYSFASQFRFRVITFPLFLRKMKKVILLSEGERHSFIFFFFFFFFL”: the “soluble on expression in E. coli” value is reported as “not soluble”.

Take “HLDAIQNFGAMDILCTDKTGTLTQDKIVLENHTDVSGKVCERVLHAAWLNSHYQTGLKNLLDTAVLEGVELDAARGLAERWQKVDEIPFDFERRRMSVVVKEDDAAHQLICKGALQEILNVSTQVRYNGDIVPLDDTMLRRIRRVTDTLNRQGLRVVAVATKYLPAREGDYQRADESDLILEGYIAFLDP”: the “soluble on expression in E. coli” value is “not soluble”.

As to “MGSDKIHHHHHHMSDVVLNKGIVIEQLRYGHGNDVLVVDAWQLGTAEHWAIFATDSYSGSLLGRILSGDITPDQGIITGLPQRIGWVSLGQQQALLARELAKDELDYGSSVELLVLECCQGAQQLGPLLQQVGLEHLRLRGFRQLSTGETRRVMLARALAMQPQLLILDDPYAGLDCEHQESLSQLLDEVAKNCQLLLITSRQEELPECISHVALFNTEMLQSGQSIHKLSLPMSIKEWHSHPIMAQLHALSAQRSDELLALLVRQRHKVEDFDPLVEIKNGKVEYVSGLIFSGVNWRIEAGQHWQVRGPNGCGKSTLLGLILGDHPQCYSNDITLFGRPRGSGESIWEIKQRIGIVSSALHLQYRVSCSALDVLLSGFFDSIGLYHKPTKLQHDLAKEWLAILHMSELAHISFKQLEYGQQRLLLIGRALIKKPLLLILDEPYQGLDFINRTLVMRTLEMIAHHHLSQLLYVSHHREDALPSIKHFIDFVRQGDGYSVQVSHL”, the “soluble on expression in E. coli” value was “not soluble”.

On to “MAACRALKAVLVDLSGTLHIEDAAVPGAQEALKRLRGASVIIRFVTNTTKESKQDLLERLRKLEFDISEDEIFTSLTAARSLLERKQVRPMLLVDDRALPDFKGIQTSDPNAVVMGLAPEHFHYQILNQAFRLLLDGAPLIAIHKARYYKRKDGLALGPGPFVTALEYATDTKATVVGKPEKTFFLEALRGTGCEPEEAVMIGDDCRDDVGGAQDVGMLGILVKTGKYRASDEEKINPPPYLTCESFPHAVDHILQHLLAENLYFQ”, for which the “soluble on expression in E. coli” value is reported as “soluble”.

Take “MRVGLVHGFLSRRYLDFWRAYLEALGVEVVEAAPPPSDLPFCLPVQRLLAQVEALKEAGVDYLLLPDLQGGVESERGGGQCPWLLDLEAALLRYFPGLPPVLKVPAELSERVLGRAGEVGQLLVRNPMLVGRALDRTRRLLKPPPPLPTPQGSVGVVAQPYLLEEPAFRREVEAALRAHGLEAYFPDLPPERLREEADRLLPVDLPTDRELVGAIHYLGRLGRVKGLALVVSYACPPIPGLMRKAARRLGKPYRLLTLGEDWQEPLAALKAEMEKGNRGG”: the “soluble on expression in E. coli” value is listed as “soluble”.

Consider “MAGDPMKAREVEFEGHLIDSMIFTKALDIILDLDGEFEILEFRVGKKKDDPSYARMIVFGRDDAHLEQILKELHKIGARIPDIEEVELAEAPADKVLPDGFYVTTNHPTFVRYGGEWLPVEDISMDRVIVIRDGRAYCIPIDEVVRGDRVVVGEKGVRVVPPERPRKSTVFEFMGGRVSSERPTERMIEAIAREIYELKLKGGKIAVVAGPAVDHTSARNALAALIRDGYVDLLLSGNALAVHDIEISIFGTSLGMDICKGRPVPGGNRHHLYTISKVIAAGGIKKAIEKGIIKDGIMYECVKNNVPFILAGSIRDDGPLPEVITDVMVAKKKMKEALRGINMVIMLATMLHSIAVGNLLPSYVKTICVDMNPSTVTKLMDRGTHQAIGVVTDVGLFLPLLYLKIKEIEAKELEHHHHHH”, for which the “soluble on expression in E. coli” value was “soluble”.

“SDYDADELAEALQPVIVNTPHLKKPIGLIGAKGEFHPVLLAETSFPVQKKLTLKQAKGDFLIGVYEGDHHIEEKTLEPIPKEENAEEDDESEWSDDEPEVVREKLYTLGTKLMELGIKNANGVEIIFNINKDGALRVTARDLKTGNAVKGEL”: the “soluble on expression in E. coli” value was “not soluble”.

With “MTEADYGEMVRREKCIMFVKRFCPYSIRARELLHDRGVGCKIIEVDNNLDAYSFAKRNHSTFPVFFLDGDLVEGGCEKLLVLSDSNLPPFDKSPLLTQNREPVLLD”, the “soluble on expression in E. coli” value is recorded as “not soluble”.

As to “MSWREKLGMIHIYTGNGKGKTTAALGLALRMLGSGGKVIIIQFMKAPKVYGEYFMAEKCNFKIESYGLPKFVHGKPDEEDIKAAKRALERAREVVKSGEWDLVILDEICVALGFGMLNIEEVKELIQEKAKNTELVLTGRYCPKELYELADYVTEMREIKHPYQRGILARRGVEY”, the “soluble on expression in E. coli” value is “soluble”.

For the sequence “MAHHHHHHMEVFNFGKYNGKTFEEVFEKHKSYVTWVKSLESPSGSLLDFKNYVLQKEGKKNSSNMANNNHYNNEKNSNNNYSNNMYENNVRSPNIYNEQYTNNNKMKENYDRNANMNNNEICTNNNRINENNVKSPHYYNNEKNINNYSHECNRSKIAYKHNYSENRNSYNNFEKSSVDTNYTNEEKKKFHNMNSSEYRNYEEKVMSDINNAYNQPEEKKEFDIIVAFEIFSDDSFKIVQKDNNNKKFVSFRNFISKDLFKIISELNPTLKKINNYTCITFEAEKYEYVLNNLKEKCTILGGVHTIPNFLLKCFKNYTKFSEPQRISEITANILTNTMCSYTKQHYDKLDHLLGEKLSVELRNFQREGVFFGLKKNGRVLIGDEMGLGKTLQALALMAFYKDDWPFIVVCPSSIRFQWKDQALRWLSHLIREEHICVVKNGKTDIPSNTKMIIISYELITKNDKYQDKYKSIICDESHYLKNSLSKRTKVITPIIKNAKRCVLLSGTPALNKPSELYEQISSIMPNFFNYHEFCDRYCFKDKNLYTKKIEYVGCKHTEELHLFLTNTIMIRRLKKDVLKELPDKLRSKIPVEIPQKELSEILNYYKKLESKKNINFHDIDNIHLSNWSNSKSEDGDDENLSISHLFKITGYAKVKAIKEYISYLIDADIKFLLFCHHKLVMDEVETFLKEQKCSYIRVDGLTPMEKREIYIKNFQNDDNVKIALLSITACGMGLNLTAANTVVFGELFWVPGQIIQAEDRAHRIGTAHDVVNIHYLIAQNTIDEIVWKIINRKWNTLTTALNGIEDSLNVKEVNKFDKFMVDLTNDTNKSYPTSLVTTPKVRRKSSEHGTFHNSSPKKKNRDIRDFFTANKCNESVEKSWNNNINKRSYHDSPMNDSPNTTLKFLSKKYKTEIN”, the “soluble on expression in E. coli” value is on record as “not soluble”.

Consider “MEIPVIEPLFTKVTEDIPGAAGPVFDKNGDFYIVAPYVEVNGKPAGEILRIDLKTGKKTVICKPEVNGYGGIPIGCQCDRDANQLFVADMRLGLLVVQTDGTFEEIAKKDSEGRRMQGCAYCAFDYEGNLWITAPAGEVAPADFTISLQEKFGSIYCFTTDGQMIQVDTAFQAPAGIAVRHMNDGRPYQLIVAEQPTKKLWSYDIKGPAKIENKKVWGHIPGTHKGGAAGMDFDEDNNLLVANWGSSHIEVFGPDGGQPKMRIRCPFEKPSALHFKPQTKTIFVTEHENNAVWKFEWQRNGKKQYCETLKFGIFGSLEHHHHHH”, for which the “soluble on expression in E. coli” value is recorded as “soluble”.

For the sequence “MGEYYHATVNGVVEYGAFVDLSEHVSGLIHESTYSGDPDLAVDDDVIVHLSAVRDNGDLSFEFVDPEEYRTEQRSHAYERTTADAVGLEHHHHHH”, the “soluble on expression in E. coli” value is “soluble”.

On to “MGHHHHHHSHKWELCPVTIISWLNLFLQVDALKDAPKVLLPQYSQETFIQIAQLLDLCILAIDSLEFQYRILTAAALCHFTSIEVVKKASGLEWDSISECVDWMVPFVNVVKSTSPVKLKTFKKIPMEDRHNIQTHTNYLAMLEEVNYINTFRKGGQLSPVCNGGIMT”, for which the “soluble on expression in E. coli” value was “not soluble”.

In the case of “MSFELPALPFAKDALEPHISAETLDYHHGKHHNTYVVKLNGLIPGTEFEGKTLEEIIKTSTGGVFNNAAQIWNHTFYWNCLAPNAGGQPTGAVAAAIDAAFGSFEEFKAKFTDSAINNFGSSWTWLVKNADGSLAIVNTSNAATPLTDEGVTPLLTVDLWEHAYYIDFRNVRPDYMGAFWSLVNWSFVEENLAK”, the “soluble on expression in E. coli” value is listed as “soluble”.

“MERPQLDSMSQDLSEALKEATKEVHIRAENSEFMRNFQKGQVSREGFKLVTASLYHIYTALEEEIERNKQNPVYAPLYFPEELHRRAALEQDLAFWYGPHWQEAIPYTPATQHYVKRLHEVGGTHPELLVAHAYTRYLGDLSGGQVLKKIAQKALALPSSGEGLASFTFPSIDNPTKFKQLYRARMNTLELTPEVKHRVTEEAKTAFLLNIELFEELQALLTEEHKDQSPSQTEFLRQRPASLVQDTTSAETPRGKSQISTSSSQTP”: the “soluble on expression in E. coli” value was “soluble”.

Regarding “MKFYRRIEPIKAMTFDLDDTLYDNHPVIIRMESELLTWLQQTHPAVAHMEKADWLQVKKHVLQQSPDLKSDVTLWRLVQLKHAFLSVGYDEAQAQVAAEEGVQLALEWRSQFDVPQQSL”, the “soluble on expression in E. coli” value is “not soluble”.

For the sequence “MRTAEFWIGRLGLERHPEGGWYRETYRSEGSYGFNGNSPFGSPRSYATSIFYLLEHGDRSRLHRIRSDEQWYFHAGSPLDVHCFPETGDPSLFTLGDDPNAGQVLHSWVSAGHWFGASLSEQADAPGTYALVSCVVAPGFDFRDLTFADPAALTAQFPAHAQIIEKLSLEHHHHHH”, the “soluble on expression in E. coli” value was “soluble”.

“MGVHVVLYQPEIPANTGNIARTCAATGTELHLIRPLGFSTDDKMLKRAGLDYWQHVKITYYDSIEEFYEKNKDGEFFYLTKYGEKAHTAFDYSKREKDYYFVFGRETNGLPANVIEENFDHCLRIPMTDKVRSLNLSNTAAILIYEAFRQQNYPGLDLEIVY”: the “soluble on expression in E. coli” value is “not soluble”.

With “MSLKKLLVIRNDKIGDFMLAWPSFAMLKASLPDCHITALVPKYTAALAELCPWIDAVIIDPGQQADKAQHKQLVQTVKAQQFDASINLFSTMYNALLVWKARIPYRLAPATKLAQIFYQHRIKQKRSQSAKPEYEYNLDLVRAFLRDIGQPIIEPNAPYLTFPAEQLAAQRSKLAEQLDIGPDKAWLFVHAGSGGSANNLSLEQYCELVTGVMDEHKQVVLTAGPGEEEKAAQLQSLLAEQGVLAALYAKNDGLVDFTRSLACAQLFIAGSTGPLHIAAALDVPTVGFFPAKRSATPLRWRPLNSQGKHIAFCPPPADDKANQENMGRIDMKSVLTELAPWLRSVQLEGHHHHHH”, the “soluble on expression in E. coli” value is reported as “soluble”.

Regarding “MRPESMTDGVPGSDSPAAAAAAASVTTSLHDLQVLVERGTLSGPEKQQADHLVTSLKRELVLRRVGDHLAERTFHELCVRLAVMERDWAAMERHIQQLMPLYELDRQAGIQSPHRDLLVGLNLMRLLAQNRLAEYHMELELLPTTEPQQNPYVLFPFQVEQALTEGSYQKILHIEAGAEWLPFIELLRETTIQEMVTSWAEAYAHVTLEELASMAALPVEQVPALLARVLDCTQYVVQNETVHFIASDHIREAPSQYLLAKEAVSRTMEYIRGLERIV”, the “soluble on expression in E. coli” value is “soluble”.

Regarding “MAVDWPRGGLMPRLRRLEDLLPHIREGRYRLGPHAAKHMLQEGFREQDILSALLWGRELAIYPEDERMLVLGYMVFPPRLRLPLHVVLEYSTPRHVDIVTAFIPREPYRVYSRARLAALLRFDGALEEVRWTGPKHLYPPWD”, the “soluble on expression in E. coli” value is “soluble”.

Take “MIYSMTAFAHLELKKEWGNAVWEMRSVNQRFLETYFRLPEQFRHLEMSLRERLRSALTRGKVECSLRIELTNSQDKELSLNKDYAEKVIGSLQTLQALAGGGQINLVDLLRYPGVVDSQTQDLDQIGQDLCAGFEEILADFIAMRAREGANLQQLIQQRLDSISKIATQVQAQMPAILQWQKEKLQQRFDELNLQLESQRLEQEIVLTAQRVDVAEELDRLQLHVKETMAILQRGGAVGRKLDFMMQELNRESNTLASKSINADVTNSAVELKVLIEQMREQIQNLE”: the “soluble on expression in E. coli” value was “not soluble”.
